Measurements as given in US20130336885A1 (Genentech, published 2013).

T1: human LgR5 ECD (amino acids 22-557 fused to His-Fc expressed in a baculovirus system, or amino acids 22-558 … (human, UniProt O75473 22-557))
T1 construct: not shown: C-terminal His-tagged Fc
T1 sequence: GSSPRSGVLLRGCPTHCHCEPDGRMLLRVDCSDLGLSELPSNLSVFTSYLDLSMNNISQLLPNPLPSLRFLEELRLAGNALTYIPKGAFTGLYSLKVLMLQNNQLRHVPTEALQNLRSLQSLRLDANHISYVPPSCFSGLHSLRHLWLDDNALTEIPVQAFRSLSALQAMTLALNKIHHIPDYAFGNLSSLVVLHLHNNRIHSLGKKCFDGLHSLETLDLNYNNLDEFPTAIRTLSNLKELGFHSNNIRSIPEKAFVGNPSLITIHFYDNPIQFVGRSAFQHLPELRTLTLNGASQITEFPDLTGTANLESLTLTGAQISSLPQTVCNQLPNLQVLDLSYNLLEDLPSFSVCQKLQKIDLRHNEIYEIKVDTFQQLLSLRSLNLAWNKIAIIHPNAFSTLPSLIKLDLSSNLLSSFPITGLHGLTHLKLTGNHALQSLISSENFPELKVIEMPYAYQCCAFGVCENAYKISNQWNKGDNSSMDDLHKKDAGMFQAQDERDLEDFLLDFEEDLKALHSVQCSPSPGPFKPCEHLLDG

T2: gD epitope-tagged LgR5 424-907 (amino acids 424-907 of SEQ ID NO: 67) on transiently transfected 293 cells (human, UniProt O75473 424-907)
T2 sequence: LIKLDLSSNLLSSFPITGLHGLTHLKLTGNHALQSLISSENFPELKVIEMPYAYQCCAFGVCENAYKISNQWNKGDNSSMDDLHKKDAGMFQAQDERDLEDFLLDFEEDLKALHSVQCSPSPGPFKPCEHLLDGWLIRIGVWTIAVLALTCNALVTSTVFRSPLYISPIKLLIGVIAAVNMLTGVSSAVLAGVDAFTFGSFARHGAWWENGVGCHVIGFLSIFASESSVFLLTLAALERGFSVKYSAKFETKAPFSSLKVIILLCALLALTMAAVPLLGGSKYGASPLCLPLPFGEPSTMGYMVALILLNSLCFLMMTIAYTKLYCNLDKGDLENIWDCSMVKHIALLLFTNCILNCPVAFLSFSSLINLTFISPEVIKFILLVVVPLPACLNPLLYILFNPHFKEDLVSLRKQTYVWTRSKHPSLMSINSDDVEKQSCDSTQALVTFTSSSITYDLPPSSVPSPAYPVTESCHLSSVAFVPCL

T3: gD epitope-tagged LgR5 22-123 (amino acids 22-123 of SEQ ID NO: 67) with a C-terminal GPI anchor on … (human, UniProt O75473 22-123, C-terminal GPI anchor)
T3 sequence: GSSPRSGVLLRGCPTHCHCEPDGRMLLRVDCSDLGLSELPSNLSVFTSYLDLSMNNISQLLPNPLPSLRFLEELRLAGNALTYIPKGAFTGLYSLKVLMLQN

T4: gD epitope-tagged LgR5 22-323 (amino acids 22-323 of SEQ ID NO: 67) with a C-terminal GPI anchor on … (human, UniProt O75473 22-323, C-terminal GPI anchor)
T4 sequence: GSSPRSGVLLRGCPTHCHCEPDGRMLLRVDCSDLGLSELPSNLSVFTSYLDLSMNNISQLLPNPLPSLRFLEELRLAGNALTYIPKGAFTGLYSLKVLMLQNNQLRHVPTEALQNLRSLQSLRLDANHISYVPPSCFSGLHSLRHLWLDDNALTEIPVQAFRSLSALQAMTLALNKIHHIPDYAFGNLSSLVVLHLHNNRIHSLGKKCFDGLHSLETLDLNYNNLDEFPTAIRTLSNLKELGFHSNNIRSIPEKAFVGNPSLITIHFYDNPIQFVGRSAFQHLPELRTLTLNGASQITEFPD

T5: gD epitope-tagged mouse LgR5 expressed on stably transfected 293 cells (mouse, UniProt Q9Z1P4 22-907)
T5 construct: also called gD-tagged mouse LgR5
T5 sequence: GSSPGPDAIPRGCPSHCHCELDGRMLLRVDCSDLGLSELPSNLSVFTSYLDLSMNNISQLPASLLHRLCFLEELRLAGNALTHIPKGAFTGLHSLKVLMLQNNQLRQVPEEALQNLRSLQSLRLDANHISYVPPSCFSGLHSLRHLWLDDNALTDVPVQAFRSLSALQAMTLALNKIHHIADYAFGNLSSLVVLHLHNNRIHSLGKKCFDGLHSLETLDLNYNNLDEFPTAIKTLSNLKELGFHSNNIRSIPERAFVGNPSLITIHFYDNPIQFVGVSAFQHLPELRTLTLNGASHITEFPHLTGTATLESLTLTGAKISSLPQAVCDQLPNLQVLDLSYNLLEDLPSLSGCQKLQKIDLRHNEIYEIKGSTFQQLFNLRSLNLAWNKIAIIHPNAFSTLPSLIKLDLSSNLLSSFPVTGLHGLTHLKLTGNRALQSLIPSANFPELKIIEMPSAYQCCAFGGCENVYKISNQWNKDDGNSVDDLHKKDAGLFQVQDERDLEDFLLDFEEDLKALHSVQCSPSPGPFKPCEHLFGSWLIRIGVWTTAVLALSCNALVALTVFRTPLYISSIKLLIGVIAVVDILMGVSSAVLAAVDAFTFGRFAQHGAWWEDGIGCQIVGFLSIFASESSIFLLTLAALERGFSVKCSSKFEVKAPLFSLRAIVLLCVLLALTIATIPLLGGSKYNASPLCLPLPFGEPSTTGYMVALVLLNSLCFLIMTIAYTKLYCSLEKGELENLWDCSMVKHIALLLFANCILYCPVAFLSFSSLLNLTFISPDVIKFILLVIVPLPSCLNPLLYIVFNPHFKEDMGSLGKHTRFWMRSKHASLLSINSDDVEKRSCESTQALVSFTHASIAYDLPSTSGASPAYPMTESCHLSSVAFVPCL


How the values were obtained:
[1] = target: T1, human LgR5 ECD (amino acids 22-557 …); assay: BIAcore-3000 SPR, IgG captured on goat anti-human Fc, human LgR5 ECD-Fc injected, 25 C, 1:1 Langmuir model
Description: The affinity of each 8E11 IgG variant for human LgR5 was determined by surface plasmon resonance using a BIAcore™-3000. BIAcore™ research grade CMS chips were activated with 1-ethyl-3-(3-dimethylaminopropyl) carbodiimide (EDC) and N-hydroxysuccinimide (NHS) reagents according to the supplier's instructions. Goat anti-human Fc IgGs were coupled to the chips to achieve approximately 10,000 response units (RU) in each flow cell. Unreacted coupling groups were blocked with 1M ethanolamine. For kinetics measurements, anti-LGR5 antibodies were captured to achieve approximately 300 RU. Two-fold serial dilutions of human LgR5ECD (amino acids 22-557 fused to His-Fc expressed in a baculovirus system, or amino acids 22-558 fused to Fc expressed from CHO cells; 125 nM to 0.49 nM) were injected in HBS-P buffer (0.01M HEPES pH7.4, 0.15M NaCl, 0.005% surfactant P20) at 25° C. with a flow rate of 30 μl/min. Association rates (kₒₙ) and dissociation rates (koff) were calculated using a 1:1 Langmuir binding model (BIAcore™ Evaluation Software version 3.2). The equilibrium dissociation constant (Kd) was calculated as the ratio koff/kₒₙ.

[2] = target: T2, gD epitope-tagged LgR5 424-907 (amino …); assay: FACS on transiently transfected 293 cells
[3] = target: T3, gD epitope-tagged LgR5 22-123 (amino …); assay: FACS on transiently transfected 293 cells
[4] = target: T4, gD epitope-tagged LgR5 22-323 (amino …); assay: FACS on transiently transfected 293 cells
[5] = target: T5, gD epitope-tagged mouse LgR5 expressed …; assay: FACS on 293 cells stably transfected with gD epitope-tagged LgR5, 10 ug/ml antibody, R-Phycoerythrin goat anti-human detection
Description: Monoclonal antibodies were tested to determine if they cross-react with LgR5 from species other than human. […] Residues that are identical among all four species are indicated by asterisks (*). […] YW353 antibody binds human and cynomolgus monkey LgR5, but not rat or mouse LgR5. Ch8E11 and hu8E11.v2 antibodies bind all four species of LgR5, although binding to rat LgR5 is not as strong as binding to human, cynomolgus monkey, or mouse LgR5. 2H6 antibody binds to human and mouse LgR5, and was not tested for binding to cynomolgus monkey or rat LgR5.

[6] = target: T1, human LgR5 ECD (amino acids 22-557 …); assay: SPR (BIAcore-3000), antibody captured by anti-human Fc, LgR5 ECD-Fc injected

Binder	Kd [1]	koff [1]	kon [1]	binding result [2]	binding result [3]	binding result [4]	binding result [5]	Kd [6]
h8E11.v3 (antibody, V domains shown, VH CDR graft + 71S/78V; also called hu8E11.v3) VH: EVQLVQSGAEVKKPGASVKVSCKASGYTFSAYWIEWVRQAPGQGLEWIGEILPGSDSTDYNEKFKVRVTITSDTSTSTVYLELSSLRSEDTAVYYCARGGHYGSLDYWGQGTLVTVSS VL: DIVMTQSPDSLAVSLGERATINCRASESVDNYGNSFMHWYQQKPGQPPKLLIYLASNLESGVPDRFSGSGSRTDFTLTISSLQAEDVAVYYCQQNYEDPFTFGQGTKVEIKR	4.73 nM	0.00053 s⁻¹	112000 M⁻¹ s⁻¹	–	–	–	–	–
h8E11.v5 (antibody, V domains shown, VH CDR graft + 71R/78A; also called hu8E11.v5) VH: EVQLVQSGAEVKKPGASVKVSCKASGYTFSAYWIEWVRQAPGQGLEWIGEILPGSDSTDYNEKFKVRVTITRDTSTSTAYLELSSLRSEDTAVYYCARGGHYGSLDYWGQGTLVTVSS VL: DIVMTQSPDSLAVSLGERATINCRASESVDNYGNSFMHWYQQKPGQPPKLLIYLASNLESGVPDRFSGSGSGTDFTLTISSLQAEDVAVYYCQQNYEDPFTFGQGTKVEIKR	14.3 nM	0.000933 s⁻¹	65000 M⁻¹ s⁻¹	–	–	–	–	–
h8E11.v7 (antibody, V domains shown, VH CDR graft + 71R/78A; also called hu8E11.v7) VH: EVQLVQSGAEVKKPGASVKVSCKASGYTFSAYWIEWVRQAPGQGLEWIGEILPGSDSTDYNEKFKVRVTITRDTSTSTAYLELSSLRSEDTAVYYCARGGHYGSLDYWGQGTLVTVSS VL: DIVMTQSPDSLAVSLGERATINCRASESVDNYGNSFMHWYQQKPGQPPKLLIYLASNLESGVPDRFSGSGSRTDFTLTISSLQAEDVAVYYCQQNYEDPFTFGQGTKVEIKR	22.1 nM	0.00258 s⁻¹	117000 M⁻¹ s⁻¹	–	–	–	–	–
monoclonal antibody 2H6 (antibody, V domains shown, The variable domains are the same in both forms; also called m2H6; mu2H6) VH: EVQLQQSGPELVKPGTSMKISCKASGYSFTGYTMNWVKQSHKNGLEWIGLINCYNGGTNYNQKFKGKATLTVDKSSSTAFMELLSLTSEDSAVYYCARGGSTMITPRFAYWGQGTLVTVSS VL: DIVMTQSPSSLTVTAGEKVTMSCKSSQSLLNSGNQKNYLTWFQQKPGQPPKLLIYWASTRESGVPDRFTGSGSGTDFTLTISNVQAEDLAVYYCQNDYSFPFTFGQGTKVEIKR	–	–	–	no binding (tested: 10 µg/ml)	no binding (tested: 10 µg/ml)	no binding (tested: 10 µg/ml)	binds	208 nM

Further binders by falling Kd [1], results first:

Kd [1]	koff [1]	kon [1]	binding result [2]	binding result [3]	binding result [4]	binding result [5]	Kd [6]	Binder
14.1 nM	0.00202 s⁻¹	143000 M⁻¹ s⁻¹	–	–	–	–	–	h8E11.v6 (antibody, V domains shown, VH CDR graft + 71A/78A; also called hu8E11.v6) VH: EVQLVQSGAEVKKPGASVKVSCKASGYTFSAYWIEWVRQAPGQGLEWIGEILPGSDSTDYNEKFKVRVTITADTSTSTAYLELSSLRSEDTAVYYCARGGHYGSLDYWGQGTLVTVSS VL: DIVMTQSPDSLAVSLGERATINCRASESVDNYGNSFMHWYQQKPGQPPKLLIYLASNLESGVPDRFSGSGSGTDFTLTISSLQAEDVAVYYCQQNYEDPFTFGQGTKVEIKR
8.97 nM	0.00217 s⁻¹	242000 M⁻¹ s⁻¹	–	–	–	–	–	h8E11.v8 (antibody, V domains shown, VH CDR graft + 71A/78A; also called hu8E11.v8) VH: EVQLVQSGAEVKKPGASVKVSCKASGYTFSAYWIEWVRQAPGQGLEWIGEILPGSDSTDYNEKFKVRVTITADTSTSTAYLELSSLRSEDTAVYYCARGGHYGSLDYWGQGTLVTVSS VL: DIVMTQSPDSLAVSLGERATINCRASESVDNYGNSFMHWYQQKPGQPPKLLIYLASNLESGVPDRFSGSGSRTDFTLTISSLQAEDVAVYYCQQNYEDPFTFGQGTKVEIKR
5.05 nM	0.000772 s⁻¹	153000 M⁻¹ s⁻¹	–	–	–	–	–	h8E11.v1 (antibody, V domains shown, VH CDR graft + 71S/78V; also called hu8E11.v1) VH: EVQLVQSGAEVKKPGASVKVSCKASGYTFSAYWIEWVRQAPGQGLEWIGEILPGSDSTDYNEKFKVRVTITSDTSTSTVYLELSSLRSEDTAVYYCARGGHYGSLDYWGQGTLVTVSS VL: DIVMTQSPDSLAVSLGERATINCRASESVDNYGNSFMHWYQQKPGQPPKLLIYLASNLESGVPDRFSGSGSGTDFTLTISSLQAEDVAVYYCQQNYEDPFTFGQGTKVEIKR
3.63 nM	0.000922 s⁻¹	254000 M⁻¹ s⁻¹	–	–	–	–	–	h8E11.v4 (antibody, V domains shown, VH CDR graft + 67A/69F/71S/78V; also called hu8E11.v4) VH: EVQLVQSGAEVKKPGASVKVSCKASGYTFSAYWIEWVRQAPGQGLEWIGEILPGSDSTDYNEKFKVRATFTSDTSTSTVYLELSSLRSEDTAVYYCARGGHYGSLDYWGQGTLVTVSS VL: DIVMTQSPDSLAVSLGERATINCRASESVDNYGNSFMHWYQQKPGQPPKLLIYLASNLESGVPDRFSGSGSRTDFTLTISSLQAEDVAVYYCQQNYEDPFTFGQGTKVEIKR
